Each block holds one molecule with its values, some of them ahead of it.
Key:
cynoPD-1_Fc (cyno) = cynoPD-1_Fc (cyno) (UniProt B0LAJ3); test: BLI (ForteBio), Fab in solution, cynoPD-1_Fc on sensor tip
[1] = biological target: b-PD-1 monomer (human PD-1) (human) (UniProt Q15116); test: MSD solution equilibrium titration, avid KD
human PD-1 on cells [2] = biological target: T1, human PD-1 on cells (human, UniProt Q15116 25-288); test: flow cytometry blocking assay, 100 nM control IgG on CHO cells with human PD-1, then PD-L2-FITC (remaining ligand signal)
T1 sequence (Q15116 25-288 limits assumed): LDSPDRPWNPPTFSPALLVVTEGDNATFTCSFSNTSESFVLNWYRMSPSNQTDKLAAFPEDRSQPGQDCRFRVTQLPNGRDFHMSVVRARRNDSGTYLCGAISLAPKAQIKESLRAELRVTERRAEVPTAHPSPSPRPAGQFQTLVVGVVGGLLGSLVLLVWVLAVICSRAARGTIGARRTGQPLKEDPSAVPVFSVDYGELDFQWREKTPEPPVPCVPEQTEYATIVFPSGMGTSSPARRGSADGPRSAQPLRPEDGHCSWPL

human PD-1 on cells [3] = biological target: T1, human PD-1 on cells; test: flow cytometry on CHO cells with human PD-1, n=1
Protocol: Cells are then washed 3×, and are incubated with a secondary antibody (PE-labelled, at final concentration of 5 μg/ml) in PBS 1% BSA for 30 min on ice (protected from light). Cells are washed 3× and analyzed via flow cytometry. Flow cytometry is performed on an Accuri C6 system (BD Biosciences) and MFIs are calculated on the C6 software. EC50s are calculated on Graphpad software.

human PD-1 on cells [4] = biological target: T1, human PD-1 on cells; test: cell-based or functional assay
human PD-1 on cells [5] = biological target: T1, human PD-1 on cells; test: cell-based or functional assay; remark: listed apart in the source
human PD-1_Fc = biological target: T2, human PD-1_Fc (human, UniProt Q15116 25-167, limits assumed); test: BLI (ForteBio), Fab in solution, hPD-1_Fc on sensor tip
T2 construct: also called hPD-1_Fc
T2 sequence (Q15116 25-167 limits assumed): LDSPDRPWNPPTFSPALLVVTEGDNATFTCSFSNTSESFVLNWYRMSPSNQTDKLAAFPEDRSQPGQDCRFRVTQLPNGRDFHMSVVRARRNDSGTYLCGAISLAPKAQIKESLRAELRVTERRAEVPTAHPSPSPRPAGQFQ

cynoPD-1_Fc = cynoPD-1_Fc (cyno, UniProt B0LAJ3 25-170); test: BLI (ForteBio), Fab in solution, cynoPD-1_Fc on sensor tip
cynoPD-1_Fc, sequence (B0LAJ3 entry or part of it limits assumed): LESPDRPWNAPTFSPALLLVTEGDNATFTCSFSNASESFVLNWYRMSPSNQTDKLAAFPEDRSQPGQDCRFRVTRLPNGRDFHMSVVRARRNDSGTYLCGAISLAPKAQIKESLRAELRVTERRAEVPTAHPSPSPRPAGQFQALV

[6] = biological target: T3, b-PD-1 monomer (human PD-1) (human, UniProt Q15116 25-167, limits assumed, biotinylated (b-PD-1; detected with streptavidin), site not stated); test: MSD solution equilibrium titration, avid KD
T3 construct: The antigen used for the avid KD is not described separately; also called antigen
T3 sequence (Q15116 25-167 limits assumed): as the sequence (Q15116 25-167 limits assumed) above
Protocol: (§1) Equilibrium affinity measurements are performed as previously described (Estep, P., et al., MAbs, 2013.5 (2): p. 270-8). Solution equilibrium titrations (SET) are performed in PBS+0.1% IgG-Free BSA (PBSF) where antigen (b-PD-1 monomer) is held constant at 10-100 pM and is incubated with 3-to 5-fold serial dilutions of Fab or mAbs starting at 5-100 nM (experimental condition is sample dependent). Antibodies diluted at 20 nM in PBS are coated onto standard bind MSD-ECL plates overnight at 4° C. or at room temperature for 30 min. Plates are blocked with BSA for 30 min whilst shaking at 700 rpm. Plates are then washed 3× with wash buffer (PBSF+0.05% Tween 20). SET samples are applied and incubated on the plates for 150 s with shaking at 700 rpm followed by one wash. Antigen captured on a plate is detected with 250 ng/mL sulfotag-labeled streptavidin in PBSF by incubation on the plate for 3 min. The plates are washed three times with wash buffer and are then read on the MSD Sector Imager 2400 instrument using 1× Read Buffer T with surfactant. The percent free antigen is plotted as a function of titrated antibody in Prism and fit to a quadratic equation to extract the KD. To improve throughput, liquid handling robots are used throughout MSD-SET experiments, including for SET sample preparation.

human PD-1_His = biological target: T4, human PD-1_His (human, UniProt Q15116 25-167, limits assumed); test: BLI (ForteBio), hPD-1_HIS in solution, IgG on sensor tip
T4 construct: also called hPD-1_HIS
T4 sequence (Q15116 25-167 limits assumed): as above
Protocol: Briefly, ForteBio affinity measurements were performed by loading IgGs online onto AHQ sensors. Sensors were equilibrated off-line in assay buffer for 30 min and then monitored on-line for 60 seconds for baseline establishment. Sensors with loaded IgGs were exposed to 100 nM antigen for 5 min, afterwards they were transferred to assay buffer for 5 min for off-rate measurement. Kinetics was analyzed using the 1:1 binding model.

human PD-1 on cells [7] = biological target: T1, human PD-1 on cells; test: flow cytometry blocking assay, 100 nM antibody on CHO cells with human PD-1, then PD-L2-FITC (remaining ligand signal)
Protocol: CHO cells 0.2×10⁶ are incubated with the experimental antibody (100 nM) for 30 min in PBS 1% BSA on ice. […] Cells are washed 3× and analyzed via flow cytometry. Flow cytometry is performed on an Accuri C6 system (BD Biosciences) and MFIs are calculated on the C6 software. EC50 s are calculated on Graphpad software.

[8] = biological target: T3, b-PD-1 monomer (human PD-1); test: MSD solution equilibrium titration, monovalent KD
Protocol: as §1

cynoPD-1_Fc (cyno), sequence (B0LAJ3 entry or part of it limits assumed): as the sequence (B0LAJ3 entry or part of it limits assumed) above
b-PD-1 monomer (human PD-1) (human), sequence (Q15116 25-167 limits assumed): as the sequence (Q15116 25-167 limits assumed) above

Molecule: nivolumab Fab
Kd (cynoPD-1_Fc (cyno)): 1200 pM

Molecule: nivolumab (antibody)
Kd [1]: 5 pM

Molecule: control IgG (antibody)
MFI (PD-L2-FITC) (human PD-1 on cells [2]): 183000 MFI

B1: Antibody B S228P IgG4 (xd-16 B) (antibody, V domains shown)
VH: QVQLVQSGAEVKKPGSSVKVSCKASGGTFSSTAISWVRQAPGQGLEWMGGIWPSFGTASYAQKFQGRVTITADESTSTAYMELSSLRSEDTAVYYCARAEYSSTGIFDYWGQGTLVTVSS
VL: DIQMTQSPSSVSASVGDRVTITCRASQGISSWLAWYQQKPGKAPKLLISAASSLQSGVPSRFSGSGSGTDFTLTISSLQPEDFATYYCQQANHLPFTFGGGTKVEIKR
notes: also called xd-16 B (IgG4 S228P); xd-16 B IgG4
EC50 (human PD-1 on cells [3]): 1460 pM
IL-2 secretion fold change vs. IgG control, 0.01 nM IgG (human PD-1 on cells [4]): 1.15 fold
IL-2 secretion fold change vs. IgG control, 0.1 nM IgG (human PD-1 on cells [4]): 1.46 fold
IL-2 secretion fold change vs. IgG control, 1 nM IgG (human PD-1 on cells [4]): 2.18 fold
IL-2 secretion fold change vs. IgG control, 10 nM IgG (human PD-1 on cells [4]): 2.39 fold
IL-2 secretion fold change vs. IgG control, 100 nM IgG (human PD-1 on cells [4]): 2.37 fold
IFNg secretion fold change vs. IgG control, 0.01 nM IgG (human PD-1 on cells [5]): 1.09 fold
IFNg secretion fold change vs. IgG control, 0.1 nM IgG (human PD-1 on cells [5]): 1.59 fold
IFNg secretion fold change vs. IgG control, 1 nM IgG (human PD-1 on cells [5]): 2.15 fold
IFNg secretion fold change vs. IgG control, 10 nM IgG (human PD-1 on cells [5]): 2.17 fold
IFNg secretion fold change vs. IgG control, 100 nM IgG (human PD-1 on cells [5]): 1.9 fold

B2: xd-16 B, Fab format produced from IgG1 expressed in yeast (Fab, V domains shown)
VH: QVQLVQSGAEVKKPGSSVKVSCKASGGTFSSTAISWVRQAPGQGLEWMGGIWPSFGTASYAQKFQGRVTITADESTSTAYMELSSLRSEDTAVYYCARAEYSSTGIFDYWGQGTLVTVSS
VL: DIQMTQSPSSVSASVGDRVTITCRASQGISSWLAWYQQKPGKAPKLLISAASSLQSGVPSRFSGSGSGTDFTLTISSLQPEDFATYYCQQANHLPFTFGGGTKVEIK
notes: Fab produced from the yeast IgG1
Kd (human PD-1_Fc): 630 pM
Kd (cynoPD-1_Fc): 780 pM

B3: xd-16 B, IgG1 format expressed in yeast (antibody, V domains shown)
VH: QVQLVQSGAEVKKPGSSVKVSCKASGGTFSSTAISWVRQAPGQGLEWMGGIWPSFGTASYAQKFQGRVTITADESTSTAYMELSSLRSEDTAVYYCARAEYSSTGIFDYWGQGTLVTVSS
VL: DIQMTQSPSSVSASVGDRVTITCRASQGISSWLAWYQQKPGKAPKLLISAASSLQSGVPSRFSGSGSGTDFTLTISSLQPEDFATYYCQQANHLPFTFGGGTKVEIK
notes: Tested as IgG1 expressed in yeast; also called Antibody B
Kd [6]: ~0.9 pM
Kd (human PD-1_His): 420 pM
MFI (PD-L2-FITC) (human PD-1 on cells [7]): 26400 MFI
Kd [8]: 45 pM

B4: Antibody D S228P IgG4 (xd-16 D) (antibody, V domains shown)
VH: QVQLVQSGAEVKKPGSSVKVSCKASGGTFSSTAISWVRQAPGQGLEWMGGIWPSFDTANYAQKFRGRVTITADESTSTAYMELSSLRSEDTAVYYCARAEYSSTGTFDYWGQGTLVTVSS
VL: DIQMTQSPSSVSASVGDRVTITCRASQGISSWLAWYQQKPGKAPKLLISAASSLQSGVPSRFSGSGSGTDFTLTISSLQPEDFATYYCQQANHLPFTFGGGTKVEIKR
notes: also called xd-16 D (IgG4 S228P); xd-16 D IgG4
EC50 (human PD-1 on cells [3]): 1470 pM

Further lines, results first:

Kd (cynoPD-1_Fc (cyno)): 470 pM
Molecule: pembrolizumab Fab

Kd [6]: 2.5 pM
Kd (human PD-1_His): 380 pM
MFI (PD-L2-FITC) (human PD-1 on cells [7]): 26500 MFI
Kd [8]: 50 pM
B5: xd-16 C, IgG1 format expressed in yeast (antibody, V domains shown)
VH: QVQLVQSGAEVKKPGSSVKVSCKASGGTFSSTAISWVRQAPGQGLEWMGGIWPSFGTASYAQKFRGRVTITADESTSTAYMELSSLRSEDTAVYYCARAEYSSTGTFDYWGQGTLVTVSS
VL: DIQMTQSPSSVSASVGDRVTITCRASQGISSWLAWYQQKPGKAPKLLISAASSLQSGVPSRFSGSGSGTDFTLTISSLQPEDFATYYCQQANHLPFTFGGGTKVEIK
notes: Tested as IgG1 expressed in yeast; also called Antibody C

Kd (human PD-1_Fc): 990 pM
Kd (cynoPD-1_Fc): 1200 pM
B6: xd-16 D, Fab format produced from IgG1 expressed in yeast (Fab, V domains shown)
VH: QVQLVQSGAEVKKPGSSVKVSCKASGGTFSSTAISWVRQAPGQGLEWMGGIWPSFDTANYAQKFRGRVTITADESTSTAYMELSSLRSEDTAVYYCARAEYSSTGTFDYWGQGTLVTVSS
VL: DIQMTQSPSSVSASVGDRVTITCRASQGISSWLAWYQQKPGKAPKLLISAASSLQSGVPSRFSGSGSGTDFTLTISSLQPEDFATYYCQQANHLPFTFGGGTKVEIK
notes: as for B2

Kd [6]: 1.3 pM
Kd (human PD-1_His): 650 pM
MFI (PD-L2-FITC) (human PD-1 on cells [7]): 40000 MFI
Kd [8]: 93 pM
B7: xd-16 D, IgG1 format expressed in yeast (antibody, V domains shown)
VH: QVQLVQSGAEVKKPGSSVKVSCKASGGTFSSTAISWVRQAPGQGLEWMGGIWPSFDTANYAQKFRGRVTITADESTSTAYMELSSLRSEDTAVYYCARAEYSSTGTFDYWGQGTLVTVSS
VL: DIQMTQSPSSVSASVGDRVTITCRASQGISSWLAWYQQKPGKAPKLLISAASSLQSGVPSRFSGSGSGTDFTLTISSLQPEDFATYYCQQANHLPFTFGGGTKVEIK
notes: Tested as IgG1 expressed in yeast; also called Antibody D

Kd (human PD-1_Fc): 570 pM
Kd (cynoPD-1_Fc): 730 pM
B8: xd-16 C, Fab format produced from IgG1 expressed in yeast (Fab, V domains shown)
VH: QVQLVQSGAEVKKPGSSVKVSCKASGGTFSSTAISWVRQAPGQGLEWMGGIWPSFGTASYAQKFRGRVTITADESTSTAYMELSSLRSEDTAVYYCARAEYSSTGTFDYWGQGTLVTVSS
VL: DIQMTQSPSSVSASVGDRVTITCRASQGISSWLAWYQQKPGKAPKLLISAASSLQSGVPSRFSGSGSGTDFTLTISSLQPEDFATYYCQQANHLPFTFGGGTKVEIK
notes: as for B2

Kd [6]: ~0.9 pM
Kd (human PD-1_His): 560 pM
MFI (PD-L2-FITC) (human PD-1 on cells [7]): 40900 MFI
Kd [8]: 150 pM
B9: xd-16 E, IgG1 format expressed in yeast (antibody, V domains shown)
VH: QVQLVQSGAEVKKPGSSVKVSCKASGGTFSSTAISWVRQAPGQGLEWMGGIWPSFGTANYARKFQGRVTITADESTSTAYMELSSLRSEDTAVYYCARAEYSSTGIFDYWGQGTLVTVSS
VL: DIQMTQSPSSVSASVGDRVTITCRASQGISSWLAWYQQKPGKAPKLLISAASSLQSGVPSRFSGSGSGTDFTLTISSLQPEDFATYYCQQANHLPFTFGGGTKVEIK
notes: Tested as IgG1 expressed in yeast; also called Antibody E

Kd (human PD-1_Fc): 860 pM
Kd (cynoPD-1_Fc): 1000 pM
B10: xd-16 E, Fab format produced from IgG1 expressed in yeast (Fab, V domains shown)
VH: QVQLVQSGAEVKKPGSSVKVSCKASGGTFSSTAISWVRQAPGQGLEWMGGIWPSFGTANYARKFQGRVTITADESTSTAYMELSSLRSEDTAVYYCARAEYSSTGIFDYWGQGTLVTVSS
VL: DIQMTQSPSSVSASVGDRVTITCRASQGISSWLAWYQQKPGKAPKLLISAASSLQSGVPSRFSGSGSGTDFTLTISSLQPEDFATYYCQQANHLPFTFGGGTKVEIK
notes: as for B2

From US20190023792A1 (Innovent, published 2019)
